From FireProtDB (doi:10.1111/j.1432-1033.1995.tb20304.x)

Conditions: Hevea brasiliensis, Thermal, DSC, glycine 0.05 M, reversible: yes (~75%), whole UniProt chain shown

B1: Pro-hevein wild type, P02877 (protein)
chain: MNIFIVVLLCLTGVAIAEQCGRQAGGKLCPNNLCCSQWGWCGSTDEYCSPDHNCQSNCKDSGEGVGGGSASNVLATYHLYNSQDHGWDLNAASAYCSTWDANKPYSWRSKYGWTAFCGPVGAHGQSSCGKCLSVTNTGTGAKTTVRIVDQCSNGGLDLDVNVFRQLDTDGKGYERGHITVNYQFVDCGDSFNPLFSVMKSSVIN
What does the source list for B1?
Tm (pH 1.82): 73 °C; heat capacity change of unfolding (pH 1.82): 0.37 kcal/mol/K; unfolding enthalpy (calorimetric) (pH 1.82): 29 kcal/mol; unfolding enthalpy (van 't Hoff) (pH 1.82): 43.4 kcal/mol; Tm (pH 2.1): 74.2 °C; heat capacity change of unfolding (pH 2.1): 0.44 kcal/mol/K; unfolding enthalpy (calorimetric) (pH 2.1): 28.6 kcal/mol; unfolding enthalpy (van 't Hoff) (pH 2.1): 41.6 kcal/mol; Tm (pH 2.92): 77.8 °C; heat capacity change of unfolding (pH 2.92): 0.5 kcal/mol/K; unfolding enthalpy (calorimetric) (pH 2.92): 31 kcal/mol; unfolding enthalpy (van 't Hoff) (pH 2.92): 41.5 kcal/mol; Tm (pH 3.2): 83.6 °C; heat capacity change of unfolding (pH 3.2): 0.62 kcal/mol/K; unfolding enthalpy (calorimetric) (pH 3.2): 34 kcal/mol; unfolding enthalpy (van 't Hoff) (pH 3.2): 41.8 kcal/mol; Tm (pH 3.54): 84.5 °C; heat capacity change of unfolding (pH 3.54): 0.44 kcal/mol/K; unfolding enthalpy (calorimetric) (pH 3.54): 36.5 kcal/mol; unfolding enthalpy (van 't Hoff) (pH 3.54): 41.6 kcal/mol; Tm (pH 3.67): 90.1 °C; heat capacity change of unfolding (pH 3.67): 0.45 kcal/mol/K; unfolding enthalpy (calorimetric) (pH 3.67): 38 kcal/mol; unfolding enthalpy (van 't Hoff) (pH 3.67): 42.5 kcal/mol
